{
  "source": "patent US20140271602",
  "about": "“NUCLEOTIDE-SPECIFIC RECOGNITION SEQUENCES FOR DESIGNER TAL EFFECTORS” (THE BROAD INSTITUTE INC., published 2014)",
  "assay_in_all_cases": "cell_activity; endogenous CACNA1C mRNA",
  "settings_in_all_cases": "tags: SID",
  "key": {"TALE1-NN repressor": {"biological_target": "T1, TALE1-NN repressor (Xanthomonas (engineered), UniProt P14727 SEQ:1-983)", "T1 chain": "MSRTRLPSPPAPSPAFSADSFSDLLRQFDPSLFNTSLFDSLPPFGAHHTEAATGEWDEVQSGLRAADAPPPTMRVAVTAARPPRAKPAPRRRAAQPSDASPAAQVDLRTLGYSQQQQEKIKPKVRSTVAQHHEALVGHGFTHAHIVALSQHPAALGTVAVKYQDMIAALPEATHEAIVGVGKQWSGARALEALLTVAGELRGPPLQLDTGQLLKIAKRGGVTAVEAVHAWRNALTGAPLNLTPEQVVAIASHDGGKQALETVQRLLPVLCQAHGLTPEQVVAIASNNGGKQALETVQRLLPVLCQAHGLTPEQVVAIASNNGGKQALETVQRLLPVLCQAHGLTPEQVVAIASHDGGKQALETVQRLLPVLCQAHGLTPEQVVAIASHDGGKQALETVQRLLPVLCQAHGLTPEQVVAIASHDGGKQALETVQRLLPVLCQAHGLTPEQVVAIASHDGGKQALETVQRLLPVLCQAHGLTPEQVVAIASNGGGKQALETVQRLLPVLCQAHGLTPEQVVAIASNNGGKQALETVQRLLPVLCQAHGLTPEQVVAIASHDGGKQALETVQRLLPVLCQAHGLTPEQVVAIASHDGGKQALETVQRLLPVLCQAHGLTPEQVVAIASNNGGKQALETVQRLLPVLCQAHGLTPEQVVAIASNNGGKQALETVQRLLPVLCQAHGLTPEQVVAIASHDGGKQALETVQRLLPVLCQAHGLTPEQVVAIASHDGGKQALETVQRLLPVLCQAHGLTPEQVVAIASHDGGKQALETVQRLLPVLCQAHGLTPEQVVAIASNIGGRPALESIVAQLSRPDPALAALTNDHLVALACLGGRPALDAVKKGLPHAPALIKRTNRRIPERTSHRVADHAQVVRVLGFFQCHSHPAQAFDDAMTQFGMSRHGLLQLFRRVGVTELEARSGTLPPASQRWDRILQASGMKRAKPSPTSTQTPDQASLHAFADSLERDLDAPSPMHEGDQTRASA"}, "TALE1-NH repressor": {"biological_target": "T2, TALE1-NH repressor (Xanthomonas (engineered), UniProt P14727 SEQ:1-983)", "T2 chain": "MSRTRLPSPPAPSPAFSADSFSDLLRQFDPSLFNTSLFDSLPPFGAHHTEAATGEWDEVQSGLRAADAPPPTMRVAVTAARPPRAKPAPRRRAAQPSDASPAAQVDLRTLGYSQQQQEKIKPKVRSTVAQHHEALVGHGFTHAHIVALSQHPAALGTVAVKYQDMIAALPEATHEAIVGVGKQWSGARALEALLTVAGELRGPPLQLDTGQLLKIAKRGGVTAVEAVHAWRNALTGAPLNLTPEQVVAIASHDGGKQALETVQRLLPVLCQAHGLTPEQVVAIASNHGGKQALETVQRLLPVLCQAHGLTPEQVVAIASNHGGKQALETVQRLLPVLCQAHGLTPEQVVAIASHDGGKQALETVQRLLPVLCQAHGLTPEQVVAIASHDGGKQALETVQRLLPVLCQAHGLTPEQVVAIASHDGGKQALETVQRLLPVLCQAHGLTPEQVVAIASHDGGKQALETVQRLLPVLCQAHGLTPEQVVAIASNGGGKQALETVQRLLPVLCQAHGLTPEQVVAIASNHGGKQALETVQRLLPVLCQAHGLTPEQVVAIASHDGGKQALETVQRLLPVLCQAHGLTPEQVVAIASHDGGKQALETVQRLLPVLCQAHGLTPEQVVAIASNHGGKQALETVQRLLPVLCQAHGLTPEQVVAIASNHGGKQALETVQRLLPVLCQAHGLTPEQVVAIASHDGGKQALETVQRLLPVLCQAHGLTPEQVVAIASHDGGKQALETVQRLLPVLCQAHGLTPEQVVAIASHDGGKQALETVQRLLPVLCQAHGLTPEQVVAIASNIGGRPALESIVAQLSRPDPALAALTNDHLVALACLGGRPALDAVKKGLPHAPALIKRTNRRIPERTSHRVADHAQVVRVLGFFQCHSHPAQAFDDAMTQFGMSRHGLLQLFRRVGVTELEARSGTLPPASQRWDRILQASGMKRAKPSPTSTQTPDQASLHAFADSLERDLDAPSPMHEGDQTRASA"}, "TALE1-NK repressor": {"biological_target": "T3, TALE1-NK repressor (Xanthomonas (engineered), UniProt P14727 SEQ:1-983)", "T3 chain": "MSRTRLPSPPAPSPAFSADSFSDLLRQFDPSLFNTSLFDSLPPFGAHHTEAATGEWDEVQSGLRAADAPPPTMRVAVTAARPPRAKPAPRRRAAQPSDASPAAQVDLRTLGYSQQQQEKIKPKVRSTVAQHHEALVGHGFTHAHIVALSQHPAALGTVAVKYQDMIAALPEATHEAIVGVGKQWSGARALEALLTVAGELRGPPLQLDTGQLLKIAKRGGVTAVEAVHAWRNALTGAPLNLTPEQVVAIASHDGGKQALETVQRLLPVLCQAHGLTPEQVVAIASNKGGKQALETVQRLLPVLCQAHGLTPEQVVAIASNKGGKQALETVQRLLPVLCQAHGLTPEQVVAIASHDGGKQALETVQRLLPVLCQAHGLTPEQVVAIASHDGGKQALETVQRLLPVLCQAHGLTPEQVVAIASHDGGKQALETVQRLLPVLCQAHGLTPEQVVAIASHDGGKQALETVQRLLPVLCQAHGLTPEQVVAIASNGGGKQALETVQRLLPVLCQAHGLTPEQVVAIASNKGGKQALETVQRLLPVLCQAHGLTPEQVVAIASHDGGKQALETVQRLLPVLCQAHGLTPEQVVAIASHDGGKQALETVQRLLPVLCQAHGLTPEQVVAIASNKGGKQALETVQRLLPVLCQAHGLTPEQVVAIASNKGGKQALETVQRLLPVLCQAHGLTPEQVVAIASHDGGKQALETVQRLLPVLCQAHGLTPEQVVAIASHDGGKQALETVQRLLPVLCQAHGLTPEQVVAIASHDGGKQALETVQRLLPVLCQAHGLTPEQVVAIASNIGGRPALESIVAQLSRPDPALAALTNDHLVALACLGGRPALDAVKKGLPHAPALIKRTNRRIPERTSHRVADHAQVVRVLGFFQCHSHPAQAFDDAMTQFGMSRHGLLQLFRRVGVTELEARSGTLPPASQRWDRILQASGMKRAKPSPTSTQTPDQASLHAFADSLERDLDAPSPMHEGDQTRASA"}},
  "data": [
    {"binder": "CACNA1C site 1 (dsDNA) DNA 1: TCGGCCCCTGCCGGCCCA DNA 2: TGGGCCGGCAGGGGCCGA", "values": [
      {"measurement": "activity", "setting": "TALE1-NN repressor", "result": "~4", "unit": "fold repression"},
      {"measurement": "activity", "setting": "TALE1-NH repressor", "result": "~4", "unit": "fold repression"},
      {"measurement": "activity", "setting": "TALE1-NK repressor", "result": "~2", "unit": "fold repression"}
    ]}
  ]
}
